This is an account of results in article PMC6389498.

For this data set, the target named is PrfA WT (Listeria monocytogenes, UniProt P22262 1-237). Description: BLI; free L-Leu, PrfA:ligand 1:100, no inhibition. To be noted: protein: recombinant; tags: His-tag (pET28a); chain copies: 2; blunt. A general note: BLI is a label-free optical method that tracks binding on a fibre tip over time.
Sequence of PrfA WT (P22262 whole entry): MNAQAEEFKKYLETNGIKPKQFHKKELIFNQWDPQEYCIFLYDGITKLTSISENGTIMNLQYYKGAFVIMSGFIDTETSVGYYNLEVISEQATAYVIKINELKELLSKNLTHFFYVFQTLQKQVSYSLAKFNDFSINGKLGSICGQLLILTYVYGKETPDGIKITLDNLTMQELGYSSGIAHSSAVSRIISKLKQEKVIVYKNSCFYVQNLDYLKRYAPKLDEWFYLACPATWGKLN

B1: PplcA/Phly PrfA box (Phlybox) (dsDNA)
DNA 1: TGTCCCTTTATCGTCGTTAACAAATGTTAATGCCTCGACA
DNA 2: TGTCGAGGCATTAACATTTGTTAACGACGATAAAGGGACA
On to B1, for which the binding result is on record as “binds”.
